{"source": "the supplement of paper PMC7125110", "parents": {"B1": {"name": "glmS ribozyme (parent)", "chain": "AUAAAAGCGCCAGAACUACAGAAAUGUAGUUGACGAGGAGGAGGUUUAUCGAAUUUUCGGCGGAUGCCUCCAAA"}}, "settings_in_all_cases": "with glucosamine-6-phosphate", "key": {"glucosamine-6-phosphate [1]": {"variants_of": "B1", "experiment": "kcat; higher = faster cleavage; RNA array", "summary_of_the_method": "(§1)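 Glucosamine-6-phosphate in HEPES/KCl/Mg(OAc)2 buffer, at 40 μM to 10 mM, was flowed over barcoded ribozyme variants transcribed in situ by E. coli RNA polymerase on sequenced MiSeq chips. Tracking was through a hybridised Cy3 probe at 37 °C. kobs, kcat and KM came from exponential decay fits and weighted Michaelis–Menten fits of normalised per-tile medians.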"}, "glucosamine-6-phosphate [2]": {"variants_of": "B1", "experiment": "KM; higher = weaker cofactor use; RNA array", "summary_of_the_method": "as §1"}, "glucosamine-6-phosphate [3]": {"variants_of": "B1", "experiment": "self-cleavage kobs at 640 uM GlcN6P; higher = faster cleavage; RNA array", "summary_of_the_method": "as §1"}, "glucosamine-6-phosphate [4]": {"variants_of": "B1", "experiment": "self-cleavage kobs at 2500 uM GlcN6P; higher = faster cleavage; RNA array", "summary_of_the_method": "as §1"}, "glucosamine-6-phosphate [5]": {"variants_of": "B1", "experiment": "self-cleavage kobs at 10000 uM GlcN6P; higher = faster cleavage; RNA array", "summary_of_the_method": "as §1"}, "glucosamine-6-phosphate [6]": {"variants_of": "B1", "experiment": "self-cleavage kobs at 160 uM GlcN6P; higher = faster cleavage; RNA array", "summary_of_the_method": "as §1"}, "glucosamine-6-phosphate [7]": {"variants_of": "B1", "experiment": "self-cleavage kobs at 40 uM GlcN6P; higher = faster cleavage; RNA array", "summary_of_the_method": "as §1"}}, "note": "± gives the standard error. For some assays here: Fewer inactive variants are shown than the library holds."}
{"variant": "G40A U45C C70U", "values": [{"measurement": "kcat", "setting": "glucosamine-6-phosphate [1]", "value": "0.000583 ± 6.9e-05", "unit": "s⁻¹"}, {"measurement": "KM", "setting": "glucosamine-6-phosphate [2]", "value": "2900 ± 550", "unit": "µM"}, {"measurement": "self-cleavage kobs at 640 uM GlcN6P", "setting": "glucosamine-6-phosphate [3]", "value": "0.000105 ± 2.7e-05", "unit": "s⁻¹"}, {"measurement": "self-cleavage kobs at 2500 uM GlcN6P", "setting": "glucosamine-6-phosphate [4]", "value": "0.000288 ± 8e-05", "unit": "s⁻¹"}, {"measurement": "self-cleavage kobs at 10000 uM GlcN6P", "setting": "glucosamine-6-phosphate [5]", "value": "0.000432 ± 0.00015", "unit": "s⁻¹"}]}
{"variant": "A39C U65G", "values": [{"measurement": "kcat", "setting": "glucosamine-6-phosphate [1]", "value": "0.00143 ± 8.9e-05", "unit": "s⁻¹"}, {"measurement": "KM", "setting": "glucosamine-6-phosphate [2]", "value": "3200 ± 380", "unit": "µM"}, {"measurement": "self-cleavage kobs at 160 uM GlcN6P", "setting": "glucosamine-6-phosphate [6]", "value": "7.31e-05 ± 2e-05", "unit": "s⁻¹"}, {"measurement": "self-cleavage kobs at 640 uM GlcN6P", "setting": "glucosamine-6-phosphate [3]", "value": "0.000243 ± 3.9e-05", "unit": "s⁻¹"}, {"measurement": "self-cleavage kobs at 2500 uM GlcN6P", "setting": "glucosamine-6-phosphate [4]", "value": "0.000558 ± 9.7e-05", "unit": "s⁻¹"}, {"measurement": "self-cleavage kobs at 10000 uM GlcN6P", "setting": "glucosamine-6-phosphate [5]", "value": "0.0011 ± 9.8e-05", "unit": "s⁻¹"}]}
{"variant": "A39C U65C", "values": [{"measurement": "kcat", "setting": "glucosamine-6-phosphate [1]", "value": "0.000473 ± 8.7e-05", "unit": "s⁻¹"}, {"measurement": "KM", "setting": "glucosamine-6-phosphate [2]", "value": "2250 ± 770", "unit": "µM"}, {"measurement": "self-cleavage kobs at 640 uM GlcN6P", "setting": "glucosamine-6-phosphate [3]", "value": "0.000107 ± 2e-05", "unit": "s⁻¹"}, {"measurement": "self-cleavage kobs at 2500 uM GlcN6P", "setting": "glucosamine-6-phosphate [4]", "value": "0.000311 ± 7.1e-05", "unit": "s⁻¹"}, {"measurement": "self-cleavage kobs at 10000 uM GlcN6P", "setting": "glucosamine-6-phosphate [5]", "value": "0.000367 ± 6.1e-05", "unit": "s⁻¹"}]}
{"variant": "G37U A53G", "values": [{"measurement": "kcat", "setting": "glucosamine-6-phosphate [1]", "value": "1.16e-05 ± 3.4e-06", "unit": "s⁻¹"}]}
{"variant": "G38U C58G", "values": [{"measurement": "kcat", "setting": "glucosamine-6-phosphate [1]", "value": "< 1e-05", "unit": "s⁻¹"}]}
{"variant": "A39C U45G", "values": [{"measurement": "kcat", "setting": "glucosamine-6-phosphate [1]", "value": "0.00234 ± 0.00083", "unit": "s⁻¹"}, {"measurement": "KM", "setting": "glucosamine-6-phosphate [2]", "value": "2340 ± 1100", "unit": "µM"}, {"measurement": "self-cleavage kobs at 40 uM GlcN6P", "setting": "glucosamine-6-phosphate [7]", "value": "6.34e-05 ± 1.1e-05", "unit": "s⁻¹"}, {"measurement": "self-cleavage kobs at 160 uM GlcN6P", "setting": "glucosamine-6-phosphate [6]", "value": "0.000127 ± 1.4e-05", "unit": "s⁻¹"}, {"measurement": "self-cleavage kobs at 640 uM GlcN6P", "setting": "glucosamine-6-phosphate [3]", "value": "0.000759 ± 0.0001", "unit": "s⁻¹"}, {"measurement": "self-cleavage kobs at 2500 uM GlcN6P", "setting": "glucosamine-6-phosphate [4]", "value": "0.00114 ± 0.00018", "unit": "s⁻¹"}, {"measurement": "self-cleavage kobs at 10000 uM GlcN6P", "setting": "glucosamine-6-phosphate [5]", "value": "0.00189 ± 0.00029", "unit": "s⁻¹"}]}
{"variant": "G38C G40A", "values": [{"measurement": "kcat", "setting": "glucosamine-6-phosphate [1]", "value": "< 1e-05", "unit": "s⁻¹"}, {"measurement": "self-cleavage kobs at 160 uM GlcN6P", "setting": "glucosamine-6-phosphate [6]", "value": "< 1e-05", "unit": "s⁻¹"}, {"measurement": "self-cleavage kobs at 10000 uM GlcN6P", "setting": "glucosamine-6-phosphate [5]", "value": "< 1e-05", "unit": "s⁻¹"}]}
{"variant": "A36G C71G", "values": [{"measurement": "kcat", "setting": "glucosamine-6-phosphate [1]", "value": "1.32e-05 ± 3.6e-06", "unit": "s⁻¹"}, {"measurement": "self-cleavage kobs at 640 uM GlcN6P", "setting": "glucosamine-6-phosphate [3]", "value": "< 1e-05", "unit": "s⁻¹"}]}
{"variant": "A39C U45A A53U C70U", "values": [{"measurement": "kcat", "setting": "glucosamine-6-phosphate [1]", "value": "4.71e-05 ± 2.2e-06", "unit": "s⁻¹"}, {"measurement": "KM", "setting": "glucosamine-6-phosphate [2]", "value": "835 ± 200", "unit": "µM"}, {"measurement": "self-cleavage kobs at 10000 uM GlcN6P", "setting": "glucosamine-6-phosphate [5]", "value": "4.34e-05 ± 1.8e-05", "unit": "s⁻¹"}]}
{"variant": "G38U U57A", "values": [{"measurement": "kcat", "setting": "glucosamine-6-phosphate [1]", "value": "1.47e-05 ± 4.2e-06", "unit": "s⁻¹"}, {"measurement": "self-cleavage kobs at 640 uM GlcN6P", "setting": "glucosamine-6-phosphate [3]", "value": "< 1e-05", "unit": "s⁻¹"}]}
{"variant": "G37U C50A", "values": [{"measurement": "kcat", "setting": "glucosamine-6-phosphate [1]", "value": "< 1e-05", "unit": "s⁻¹"}, {"measurement": "self-cleavage kobs at 640 uM GlcN6P", "setting": "glucosamine-6-phosphate [3]", "value": "< 1e-05", "unit": "s⁻¹"}, {"measurement": "self-cleavage kobs at 10000 uM GlcN6P", "setting": "glucosamine-6-phosphate [5]", "value": "< 1e-05", "unit": "s⁻¹"}]}
{"variant": "A39G G41C", "values": [{"measurement": "kcat", "setting": "glucosamine-6-phosphate [1]", "value": "4.55e-05 ± 7.4e-06", "unit": "s⁻¹"}, {"measurement": "self-cleavage kobs at 40 uM GlcN6P", "setting": "glucosamine-6-phosphate [7]", "value": "< 1e-05", "unit": "s⁻¹"}, {"measurement": "self-cleavage kobs at 2500 uM GlcN6P", "setting": "glucosamine-6-phosphate [4]", "value": "5.57e-05 ± 1.5e-05", "unit": "s⁻¹"}, {"measurement": "self-cleavage kobs at 10000 uM GlcN6P", "setting": "glucosamine-6-phosphate [5]", "value": "3.84e-05 ± 1.2e-05", "unit": "s⁻¹"}]}
{"variant": "A39G G41A", "values": [{"measurement": "kcat", "setting": "glucosamine-6-phosphate [1]", "value": "0.00311 ± 0.00078", "unit": "s⁻¹"}, {"measurement": "KM", "setting": "glucosamine-6-phosphate [2]", "value": "3870 ± 1400", "unit": "µM"}, {"measurement": "self-cleavage kobs at 40 uM GlcN6P", "setting": "glucosamine-6-phosphate [7]", "value": "4.23e-05 ± 8.3e-06", "unit": "s⁻¹"}, {"measurement": "self-cleavage kobs at 160 uM GlcN6P", "setting": "glucosamine-6-phosphate [6]", "value": "8.83e-05 ± 2.3e-05", "unit": "s⁻¹"}, {"measurement": "self-cleavage kobs at 640 uM GlcN6P", "setting": "glucosamine-6-phosphate [3]", "value": "0.000475 ± 9.1e-05", "unit": "s⁻¹"}, {"measurement": "self-cleavage kobs at 2500 uM GlcN6P", "setting": "glucosamine-6-phosphate [4]", "value": "0.00153 ± 0.00033", "unit": "s⁻¹"}, {"measurement": "self-cleavage kobs at 10000 uM GlcN6P", "setting": "glucosamine-6-phosphate [5]", "value": "0.00217 ± 0.0003", "unit": "s⁻¹"}]}
{"variant": "A36U U49G", "values": [{"measurement": "kcat", "setting": "glucosamine-6-phosphate [1]", "value": "2.84e-05 ± 1.2e-05", "unit": "s⁻¹"}, {"measurement": "self-cleavage kobs at 40 uM GlcN6P", "setting": "glucosamine-6-phosphate [7]", "value": "< 1e-05", "unit": "s⁻¹"}, {"measurement": "self-cleavage kobs at 2500 uM GlcN6P", "setting": "glucosamine-6-phosphate [4]", "value": "3.43e-05 ± 1.7e-05", "unit": "s⁻¹"}]}
{"variant": "A36C C70U", "values": [{"measurement": "kcat", "setting": "glucosamine-6-phosphate [1]", "value": "< 1e-05", "unit": "s⁻¹"}, {"measurement": "self-cleavage kobs at 40 uM GlcN6P", "setting": "glucosamine-6-phosphate [7]", "value": "< 1e-05", "unit": "s⁻¹"}]}
{"variant": "A39U U54G", "values": [{"measurement": "kcat", "setting": "glucosamine-6-phosphate [1]", "value": "0.0173 ± 0.0074", "unit": "s⁻¹"}, {"measurement": "self-cleavage kobs at 40 uM GlcN6P", "setting": "glucosamine-6-phosphate [7]", "value": "0.000704 ± 0.00014", "unit": "s⁻¹"}, {"measurement": "self-cleavage kobs at 160 uM GlcN6P", "setting": "glucosamine-6-phosphate [6]", "value": "0.00169 ± 0.00043", "unit": "s⁻¹"}, {"measurement": "self-cleavage kobs at 640 uM GlcN6P", "setting": "glucosamine-6-phosphate [3]", "value": "0.00453 ± 0.001", "unit": "s⁻¹"}, {"measurement": "self-cleavage kobs at 10000 uM GlcN6P", "setting": "glucosamine-6-phosphate [5]", "value": "0.018 ± 0.0044", "unit": "s⁻¹"}]}
{"variant": "G38U C61G", "values": [{"measurement": "kcat", "setting": "glucosamine-6-phosphate [1]", "value": "< 1e-05", "unit": "s⁻¹"}, {"measurement": "self-cleavage kobs at 160 uM GlcN6P", "setting": "glucosamine-6-phosphate [6]", "value": "< 1e-05", "unit": "s⁻¹"}]}
{"variant": "G37C G60C", "values": [{"measurement": "kcat", "setting": "glucosamine-6-phosphate [1]", "value": "< 1e-05", "unit": "s⁻¹"}, {"measurement": "self-cleavage kobs at 10000 uM GlcN6P", "setting": "glucosamine-6-phosphate [5]", "value": "< 1e-05", "unit": "s⁻¹"}]}
{"variant": "G38U A53C C70U", "values": [{"measurement": "kcat", "setting": "glucosamine-6-phosphate [1]", "value": "< 1e-05", "unit": "s⁻¹"}, {"measurement": "self-cleavage kobs at 2500 uM GlcN6P", "setting": "glucosamine-6-phosphate [4]", "value": "< 1e-05", "unit": "s⁻¹"}]}
{"variant": "G37A U55A", "values": [{"measurement": "kcat", "setting": "glucosamine-6-phosphate [1]", "value": "0.00489 ± 0.0022", "unit": "s⁻¹"}, {"measurement": "self-cleavage kobs at 40 uM GlcN6P", "setting": "glucosamine-6-phosphate [7]", "value": "0.000128 ± 5.4e-05", "unit": "s⁻¹"}, {"measurement": "self-cleavage kobs at 160 uM GlcN6P", "setting": "glucosamine-6-phosphate [6]", "value": "0.000133 ± 2.8e-05", "unit": "s⁻¹"}, {"measurement": "self-cleavage kobs at 640 uM GlcN6P", "setting": "glucosamine-6-phosphate [3]", "value": "0.000667 ± 0.00015", "unit": "s⁻¹"}, {"measurement": "self-cleavage kobs at 2500 uM GlcN6P", "setting": "glucosamine-6-phosphate [4]", "value": "0.00226 ± 0.00037", "unit": "s⁻¹"}, {"measurement": "self-cleavage kobs at 10000 uM GlcN6P", "setting": "glucosamine-6-phosphate [5]", "value": "0.00286 ± 0.00068", "unit": "s⁻¹"}]}
